Reference: US10684273B2, “Use of phosphatidylinositol phosphate-binding material for apoptosis detection” (GIL MEDICAL CENTER, priority 2015, dated 2020)
“Also recorded” adds a separate entry of the source.

What was measured:
liver Kupffer cells = experiment: phagocytosis of IC-InsP6 by liver Kupffer cells after intra-arterial injection; type: in vivo, C57BL/6 mice
RAW264.7 macrophages = experiment: IC-InsP6 absorption by RAW264.7 macrophages; type: cell-based; conditions: treatment concentration-dependent
[1] = system: Thioglycollate-elicited peritoneal macrophages (Thio-pMacs); experiment: IC-InsP6 absorption by peritoneal macrophages (Prussian blue staining); type: cell-based, C57BL/6 mouse; conditions: compared to non-activated Thio-pMacs; 0 mM to 0.5 mM, 4 hours; concentration-dependent
Method: Thioglycollate-elicited peritoneal macrophages (Thio-pMacs) in a C57BL/6 mouse were obtained. Specifically, 2 mL of 3% Brewer thioglycollate medium (Difco, Detroit, Mich., USA) was intraperitoneally injected the mouse, and 3 to 5 days thereafter, the peritoneum of the mouse was washed with cold PBS to recover peritoneal macrophages. The cells were centrifuged at 1,500 rpm for 5 minutes. The resulting pellet was washed 3 times with PBS, resuspended in DMEM medium containing 10% FBS (Gibco), and cultured on the cover glass in a 6-well plate (Nunc, Fisher Scientific) at a density of 1×10^5 cells/mL. The cells were cultured by adhesion culture, and the slides were washed to remove the suspending cells. Then, the adhered Thio-pMacs cells were cultured according to the presence of LPS (0.5 μg/mL) for 6 hours. LPS induces the activation of Thio-pMacs.
After cultivation, the cells were treated with IC-InsP6 (0 mM to 0.5 mM) for 4 hours. The cells were washed with PBS to remove free IC-InsP6, fixed with formalin (10% neutral buffered) for 5 minutes, and stained as described below for the confirmation of intracellular iron absorption. Specifically, the cover glass was placed in a staining solution (5% potassium ferrocyanide and 12% HCl) for 1 hour, washed 3 times with distilled water, and stained with Prussian blue. […]

[2] = system: PtdIns(3,4,5)P3 externalized on the surface of apoptotic HeLa and CHO cells; experiment: binding of recombinant Akt protein to apoptotic cells (confocal microscopy); type: cell-based; conditions: through PH domain; 2 μg protein
Method: First, HeLa and CHO cells were treated with 4 μM camptothecin for 6 hours to induce apoptosis, fixed with formalin (10% neutral buffered) for 5 minutes, and washed twice with PBS. Then, the cells were treated with the serum-free protein blocking solution (Dako), and cultured along with 2 μg of recombinant Akt proteins (Millipore) for 30 minutes. Then, the HeLa and CHO cells, which were bound to Akt proteins, were treated with rabbit anti-CD14 antibody (HPA00212; 1:200, Sigma-Aldrich USA) or the anti-Akt pleckstrin homology (PH) domain antibody of monoclonal mouse (05-591, 1:100, Millipore) for 30 minutes, and treated with FITC-labeled secondary antibody for 30 minutes. Then, the resultant was counterstained with DAPI to visualize nuclei, and counterstained with propidium iodide to distinguish apoptotic cells.
(§1) Then, the cells were placed on a microscope and photographed by the Zeiss LSM 710 laser-scanning confocal microscope (Carl Zeiss) with appropriate excitation using a release filter set. The images were photographed using 40× oil immersion lens. The fluorescence intensity of the unprocessed original images was quantified using ZEN 2010 software (Carl Zeiss).

apoptotic CHO cells = experiment: detection of apoptosis by recombinant PH domain and annexin V (confocal microscopy); type: cell-based; conditions: 4 μM camptothecin 6 hours
Method: (§2) First, apoptosis was induced in CHO cells by treating them with 4 μM camptothecin for 6 hours, and the cells were fixed with formalin (10% neutral buffered) for 5 minutes and washed twice with PBS. Then, the cells were treated with a serum-free protein blocking solution (DAKO) along with the recombinant PH domain prepared in Example 5-1 for 30 minutes. Then, the cells were treated with the anti-Akt PH domain antibody of monoclonal mouse (05-591, 1:100, Millipore) and then treated with FITC-labeled secondary antibody for 30 minutes. Then, the cells were washed with PBS, fixed with formalin (10% neutral buffered) for 5 minutes, and stained. The cells were counterstained with propidium iodide to distinguish apoptotic cells.
(§3) The recombinant annexin V prepared in Example 5-1 was subjected to an experiment in the same manner and analyzed by FACS.
as §1

apoptotic cells = experiment: flow cytometer analysis of apoptosis; type: cell-based; conditions: FIG. 14
Method: as §2, §3

[3] = protein-lipid overlay assay, other lipids on the strip; type: binding; conditions: mixed with 5 μM CaCl2
Method: (§4) To confirm whether the inositol phosphpate groups of various phosphatidylinositol phosphates directly bind to macrophage CD14 receptors, a protein-lipid overlay assay was performed using the full-length recombinant human CD14 proteins and variant CD14 proteins prepared in Example 2-2. PIP strips or PIP arrays were purchased from Echelon Biosciences.
(§5) After culturing a cell membrane for 15 minutes, non-specific bindings to the cell membrane was blocked using TBS-T (50 mM Tris, 0.15 M NaCl, and 0.05% Tween-20, pH 7.4, EDTA-free protease inhibitor cocktail; Roche, Germany) containing 3% BSA. After the blocking, the cell membrane was incubated along with each of the purified recombinant CD14 proteins (100 ρmol) for 30 minutes, washed 3 times with PBS, incubated again with anti-CD14 (rabbit, HPA002127; Sigma-Aldrich), and incubated with horseradish peroxidase (HRP)-labeled secondary antibody (goat; HAF007; R&D Systems) for 30 minutes. The binding was detected using the ImageQuant LAS 4000 (Fujifilm, Japan). As described in Toda et al. (Mol Cell Biol 32, 118, 2012), PIP-affinity bead pulldowns were performed.
To confirm whether the PKCβ1 C2 domain-Myc protein and the inositol phosphpate group in various phosphatidylinositol phosphates directly bind to each other, protein-lipid overlay assay and immunoblotting were performed in the same manner as in Example 2-3. […]

[4] = protein-lipid overlay assay and immunoblotting (PIP strips or PIP arrays); type: binding; conditions: mixed with 5 μM CaCl2
Method: as §4, §5
To confirm whether the PKCβ1 C2 domain-Myc protein and the inositol phosphpate group in various phosphatidylinositol phosphates directly bind to each other, protein-lipid overlay assay and immunoblotting were performed in the same manner as in Example 2-3. The PIP strip or PIP array was purchased from Echelon Biosciences.
Annexin V, which is known to specifically bind to phosphatidylserine, was subjected to protein-lipid overlay assay and immunoblotting in the same manner as in Example 2-3.

Iron-Calcium-InsP6 (phytate) [IC-InsP6]
phagocytosis of IC-InsP6 by CD14-defective Kupffer cells (liver Kupffer cells; CD14-defective mice, intra-arterial injection): hardly phagocytized | phagocytosis of IC-InsP6 by wild-type Kupffer cells (liver Kupffer cells; wild-type mice): effectively phagocytized | phagocytosis of IC-InsP6 by RAW264.7 macrophages (RAW264.7 macrophages): effective phagocytosis | phagocytosis of IC-InsP6 by LPS-activated Thio-pMacs [1]: effective phagocytosis

recombinant Akt protein: recombinant Akt proteins (Millipore), PH domain-containing protein
binding to PtdIns(3,4,5)P3 externalized on the surface of apoptotic cells [2]: binds; also recorded: can bind

B1: PH domain: human Akt PH domain (1st to 144th amino acids) cloned into pET28a, expressed in E. coli, 21 kDa (protein, UniProt P31749 1-144, looked up, fragment)
chain: MSDVAIVKEGWLHKRGEYIKTWRPRYFLLKNDGTFIGYKERPQDVDQREAPLNNFSVAQCQLMKTERPRPNTFIIRCLQWTTVIERTFHVETPEEREEWTTAIQTVADGLKKQEEEEMDFRSGSPSDNSGAEEMEVSLAKPKHR
modifications: PH domain
notes: human Akt PH domain (1st to 144th amino acids) cloned into pET28a, expressed in E. coli, 21 kDa
binding on the surfaces of apoptotic cells / detection of apoptosis (apoptotic CHO cells; FIG. 13): bind at different locations from each other | binding on the surfaces of apoptotic cells / detection of apoptosis (apoptotic CHO cells; FIG. 13, listed as recombinant PH domain): can detect apoptosis | detection in apoptotic cells by flow cytometer (apoptotic cells): appeared

B2: annexin V: human annexin V (1st to 319th amino acids) cloned into pET28a, expressed in E. coli, 37 kDa (protein, UniProt P08758 1-319, looked up, fragment)
chain: MAQVLRGTVTDFPGFDERADAETLRKAMKGLGTDEESILTLLTSRSNAQRQEISAAFKTLFGRDLLDDLKSELTGKFEKLIVALMKPSRLYDAYELKHALKGAGTNEKVLTEIIASRTPEELRAIKQVYEEEYGSSLEDDVVGDTSGYYQRMLVVLLQANRDPDAGIDEAQVEQDAQALFQAGELKWGTDEEKFITIFGTRSVSHLRKVFDKYMTISGFQIEETIDRETSGNLEQLLLAVVKSIRSIPAYLAETLYYAMKGAGTDDHTLIRVMVSRSEIDLFNIRKEFRKNFATSLYSMIKGDTSGDYKKALLLLCGED
binding to phosphatidylserine [3]: did not bind | binding on the surfaces of apoptotic cells / detection of apoptosis (apoptotic CHO cells; FIG. 13): bind at different locations from each other | detection in apoptotic cells by flow cytometer (apoptotic cells): simultaneously detected | binding to PI(3,5)P2, PI(4,5)P2, and PI(3,4,5)P3 [4]: strongest bindings | binding to PI(5)P, PI(3)P, PI(4)P and PI(3,4)P2 [4]: also shown to bind | binding to various kinds of phosphatidylinositol phosphates ([4]; 100 ρmol): shown to bind
